# B1: human Hip kinase 4 (HipK4), recombinant, expressed in Sf9 insect cells (protein)
# chain: MSTIQSETDCYDIIEVLGKGTFGEVAKGWRRSTGEMVAIKILKNDAYRNRIIKNELKLLHCMRGLDPEEAHVIRFLEFFHDALKFYLVFELLEQNLFEFQKENNFAPLPARHIRTVTLQVLTALARLKELAIIHADLKPENIMLVDQTRCPFRVKVIDFGSASIFSEVRYVKEPYIQSRFYRAPEILLGLPFCEKVDVWSLGCVMAELHLGWPLYPGNNEYDQVRYICETQGLPKPHLLHAACKAHHFFKRNPHPDAANPWQLKSSADYLAETKVRPLERRKYMLKSLDQIETVNGGSVASRLTFPDREALAEHADLKSMVELIKRMLTWESHERISPSAALRHPFVSMQQLRSAHETTHYYQLSLRSYRLSLQVEGKPPTPVVAAEDGTPYYCLAEEKEAAGMGSVAGSSPFFREEKAPGMQRAIDQLDDLSLQEAGHGLWGETCTNAVSDMMVPLKAAITGHHVPDSGPEPILAFYSSRLAGRHKARKPPAGSKSDSNFSNLIRLSQVSPEDDRPCRGSSWEEGEHLGASAEPLAILQRDEDGPNIDNMTMEAERPDPELFDPSSCPGEWLSEPDCTLESVRGPRAQGLPPRRSHQHGPPRGATSFLQHVTGHH
# What was measured:
# [1] = biological target: T1, FoxO3a (NP-963853), substrate peptide from a peptide library, O43524
# T1 chain: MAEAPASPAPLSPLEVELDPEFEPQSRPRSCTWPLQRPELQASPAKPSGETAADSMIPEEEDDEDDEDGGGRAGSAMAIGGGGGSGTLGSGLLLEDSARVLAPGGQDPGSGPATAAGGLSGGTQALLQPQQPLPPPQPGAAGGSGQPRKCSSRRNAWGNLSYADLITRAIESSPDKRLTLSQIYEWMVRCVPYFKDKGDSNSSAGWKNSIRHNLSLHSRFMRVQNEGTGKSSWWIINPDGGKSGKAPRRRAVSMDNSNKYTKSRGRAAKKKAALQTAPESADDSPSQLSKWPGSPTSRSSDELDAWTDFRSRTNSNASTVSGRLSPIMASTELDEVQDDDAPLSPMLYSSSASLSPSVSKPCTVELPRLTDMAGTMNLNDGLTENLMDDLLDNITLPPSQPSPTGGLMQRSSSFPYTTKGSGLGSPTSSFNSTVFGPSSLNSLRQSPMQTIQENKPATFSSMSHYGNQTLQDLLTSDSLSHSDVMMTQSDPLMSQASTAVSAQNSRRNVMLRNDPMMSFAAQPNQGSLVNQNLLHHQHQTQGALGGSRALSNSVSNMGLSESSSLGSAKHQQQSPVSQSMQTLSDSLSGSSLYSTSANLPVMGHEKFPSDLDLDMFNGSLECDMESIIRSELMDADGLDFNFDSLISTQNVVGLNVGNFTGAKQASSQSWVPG
# [2] = biological target: T2, RBL2 (NM-005611), substrate peptide from a peptide library, Q08999
# T2 chain: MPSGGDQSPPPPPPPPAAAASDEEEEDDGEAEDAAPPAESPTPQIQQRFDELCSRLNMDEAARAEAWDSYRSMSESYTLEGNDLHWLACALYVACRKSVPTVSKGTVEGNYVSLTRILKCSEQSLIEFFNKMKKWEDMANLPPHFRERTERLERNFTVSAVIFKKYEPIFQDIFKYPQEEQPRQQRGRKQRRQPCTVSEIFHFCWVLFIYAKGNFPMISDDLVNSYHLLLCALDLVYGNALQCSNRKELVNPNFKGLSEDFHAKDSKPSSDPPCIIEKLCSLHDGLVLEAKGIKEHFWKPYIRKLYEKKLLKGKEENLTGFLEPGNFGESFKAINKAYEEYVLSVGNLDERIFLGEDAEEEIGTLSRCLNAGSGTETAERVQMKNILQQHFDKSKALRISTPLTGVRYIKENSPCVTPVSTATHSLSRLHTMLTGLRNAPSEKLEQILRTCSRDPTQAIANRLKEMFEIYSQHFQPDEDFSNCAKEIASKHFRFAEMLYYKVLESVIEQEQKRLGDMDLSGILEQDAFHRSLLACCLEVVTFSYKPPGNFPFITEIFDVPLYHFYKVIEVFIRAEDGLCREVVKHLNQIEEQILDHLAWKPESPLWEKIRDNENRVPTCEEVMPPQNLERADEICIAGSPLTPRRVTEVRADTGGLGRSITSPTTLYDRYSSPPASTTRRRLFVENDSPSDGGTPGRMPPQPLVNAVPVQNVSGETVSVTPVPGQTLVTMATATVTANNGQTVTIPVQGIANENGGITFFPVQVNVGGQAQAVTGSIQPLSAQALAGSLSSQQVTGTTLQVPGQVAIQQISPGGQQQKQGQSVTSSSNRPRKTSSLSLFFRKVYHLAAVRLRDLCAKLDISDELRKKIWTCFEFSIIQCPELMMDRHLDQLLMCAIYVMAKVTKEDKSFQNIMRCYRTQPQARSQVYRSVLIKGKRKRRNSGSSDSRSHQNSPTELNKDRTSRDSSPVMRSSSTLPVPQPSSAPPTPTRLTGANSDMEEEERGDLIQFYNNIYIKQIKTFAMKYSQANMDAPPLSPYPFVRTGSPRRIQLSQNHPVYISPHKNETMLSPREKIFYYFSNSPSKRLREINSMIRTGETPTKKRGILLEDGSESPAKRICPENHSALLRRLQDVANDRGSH
protein,measurement,setting,value
B1,"phosphorylation of library peptides (HTS kinase assay, streptavidin-SPA beads)",[1],"The proteins identified as HipK4 substrates with the aid of such an experimental approach are the following, inter alia; FoxO3a (NP-963853) and RBL2 (NM-005611)"
same,"phosphorylation of library peptides (HTS kinase assay, streptavidin-SPA beads)",[2],"The proteins identified as HipK4 substrates with the aid of such an experimental approach are the following, inter alia; FoxO3a (NP-963853) and RBL2 (NM-005611)"
